Reference: patent US20200199231A1 (Genmab, published 2020)

T1: human CD20 (human, UniProt P11836 1-297)
T1 construct: whole, on cells; On Daudi and other human B cell lines, on human B cells in blood, or transiently expressed in HEK293F cells (construct pEE12.4CD20HS-GA); also called wild type CD20; WT CD20
T1 sequence (looked up): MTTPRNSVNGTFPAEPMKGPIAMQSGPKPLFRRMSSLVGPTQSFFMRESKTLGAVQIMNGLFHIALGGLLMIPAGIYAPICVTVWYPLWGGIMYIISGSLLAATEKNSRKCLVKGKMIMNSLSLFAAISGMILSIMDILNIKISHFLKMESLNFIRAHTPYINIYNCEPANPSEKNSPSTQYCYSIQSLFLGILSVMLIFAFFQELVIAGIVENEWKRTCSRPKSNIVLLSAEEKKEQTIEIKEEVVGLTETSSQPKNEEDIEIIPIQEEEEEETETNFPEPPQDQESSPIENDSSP

T2: CD20-AxP (human, UniProt P11836 1-297)
T2 construct: whole, on cells; Transiently expressed in HEK293F cells; also called AxP mutant; CD20 mutant (CD20-AxP)
T2 sequence (looked up): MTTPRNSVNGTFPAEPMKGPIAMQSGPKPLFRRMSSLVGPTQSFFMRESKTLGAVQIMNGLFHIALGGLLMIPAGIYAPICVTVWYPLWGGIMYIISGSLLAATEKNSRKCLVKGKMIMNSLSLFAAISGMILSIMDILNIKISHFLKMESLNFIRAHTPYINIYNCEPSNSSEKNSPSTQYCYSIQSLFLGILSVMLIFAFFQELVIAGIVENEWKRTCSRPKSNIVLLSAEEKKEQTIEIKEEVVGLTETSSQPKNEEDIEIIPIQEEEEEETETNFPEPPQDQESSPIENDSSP

T3: CD20 KDD mutant (human, UniProt P11836 1-297)
T3 construct: whole, on cells; Transiently expressed in HEK293F cells; also called T159K/N163D/N166D
T3 sequence (looked up): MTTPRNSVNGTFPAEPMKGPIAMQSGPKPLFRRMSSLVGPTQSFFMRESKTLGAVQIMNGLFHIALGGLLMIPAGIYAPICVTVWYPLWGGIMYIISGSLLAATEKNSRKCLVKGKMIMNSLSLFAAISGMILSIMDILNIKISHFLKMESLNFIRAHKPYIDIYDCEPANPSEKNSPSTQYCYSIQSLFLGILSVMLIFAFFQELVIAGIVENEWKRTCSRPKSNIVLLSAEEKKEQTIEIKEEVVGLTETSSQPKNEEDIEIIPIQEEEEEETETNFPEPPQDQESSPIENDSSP


What was measured:
human CD20 [1] = target: T1, human CD20; assay: flow cytometry on HEK293F cells transiently expressing wild type CD20; PE-conjugated goat anti-human IgG F(ab')2; MFI
Protocol: (§1) PCR was performed on a Tgradient Thermocycler 96 (Biometra) using a 35 cycle program of: +95° C. for 15 min, followed by 35 cycles of: +94° C. for 30 sec, anneal: 55° C. for 30 sec and extension: +72° C. for 2 min, followed by a final extension step at 72° C. for 10 min and subsequent storage at 4° C. The completed reactions were analyzed by agarose gel electrophoresis. See Table 11 for details of primer pairs used for colony PCR. DNA sequencing: Plasmid DNA samples were send to AGOWA (Berlin, Germany) for sequence analysis. Sequences were analyzed using the VectorNTI software package (Informax, Frederick, Md., USA).
(§2) Mutagenesis: The mutagenesis was performed, using the QuikChange® XL Site-Directed Mutagenesis kit (Cat 200517-5, Lot 1120630, Stratagene Europe) according to the manufacturer's instructions. Mutagenesis reactions were concentrated using ethanol precipitation and transformed into either oneshot DH5α-TIR competent E. coli cells or electroporated into ElectroTen-Blue® Electroporation-Competent Cells. Colonies were checked by colony PCR and restriction digestion prior to transfection. […] Anti-CD20 Antibody binding: HEK293F cells were taken up in staining buffer (PBS supplemented with 0.1% BSA and 0.02% NaN₃) and added to round bottom plates (1-3×10⁵/well in 100 μL). […] After washing twice in staining buffer, cells were incubated in 50 μL secondary antibody at 4° C. for 30 min. As a secondary antibody, R-Phycoerythrin (PE)-conjugated goat-anti-human IgG F(ab′)₂ was used, as described supra. Next, cells were washed once in staining buffer, re-suspended in 150 μL staining buffer and analyzed on a flow cytometer (FACSCanto-720, Becton Dickinson, San Diego, Calif., USA) and 10,000 events per sample were acquired at high flow rate. Binding curves were analyzed using non-linear regression (sigmoidal dose-response with variable slope) using GraphPad Prism V75.04 software (GraphPad Software, San Diego, Calif., USA).

human CD20 [2] = target: T1, human CD20; assay: flow cytometry on Daudi cells (CD20-positive, CD3-negative); PE-conjugated goat anti-human IgG F(ab')2; median FI (PE)
Protocol: (§3) In addition to the non-activating mutations, L234F, L235E, D265A, on both arms, the bispecific antibody contained an F405L mutation on one arm and a K409R mutation on the other arm.
(§4) Cells (1×10⁵ cells/well) were incubated in polystyrene 96-well round-bottom plates (Greiner bio-one, cat. no. 650101) with serial dilutions of antibodies (range 0.041 to 30 μg/mL in 3-fold dilution steps [A-E] and 0.00061 to 10 μg/mL in 4-fold dilution steps [F-I]) in 100 μL PBS/0.1% BSA/0.02% azide (from here designated as staining buffer) at 4° C. for 30 min.
(§5) After washing twice in staining buffer, cells were incubated in 50 μL secondary antibody at 4° C. for 30 min. As a secondary antibody, R-Phycoerythrin (PE)-conjugated goat-anti-human IgG F(ab′)₂ (cat. no. 109-116-098, Jackson ImmunoResearch Laboratories, Inc., West Grove, Pa.) diluted 1:200 in staining buffer, was used for all experiments. Next, cells were washed twice in staining buffer, re-suspended in 30 μL staining buffer and analyzed on an iQue screener (Intellicyt Corporation, USA) (for FIG. 1A-E) or re-suspended in 100 μL staining buffer and analyzed on a FACSCANTOII (BD Biosciences) (FIG. 1F-I). Binding curves were analyzed using non-linear regression (sigmoidal dose-response with variable slope) using GraphPad Prism V75.04 software (GraphPad Software, San Diego, Calif., USA).

CD20-AxP = target: T2, CD20-AxP; assay: flow cytometry, HEK293F transfectants, MFI mutant/MFI wt at 10 µg/mL
Protocol: (§6) As a secondary antibody, R-Phycoerythrin (PE)-conjugated goat-anti-human IgG F(ab′)₂ was used, as described supra. Next, cells were washed once in staining buffer, re-suspended in 150 μL staining buffer and analyzed on a flow cytometer (FACSCanto-720, Becton Dickinson, San Diego, Calif., USA) and 10,000 events per sample were acquired at high flow rate. Binding curves were analyzed using non-linear regression (sigmoidal dose-response with variable slope) using GraphPad Prism V75.04 software (GraphPad Software, San Diego, Calif., USA).
(§7) Numbers indicate the percentage of binding to the CD20 mutants, relative to binding to wild type CD20, at 10 μg/mL. The percentage of binding was calculated by the following formula: (MFI binding to CD20 mutant)/(MFI binding CD20 wt) × 100%

CD20 KDD mutant [3] = target: T3, CD20 KDD mutant; assay: as above
Protocol: as §6, §7

CD20 KDD mutant [4] = target: T3, CD20 KDD mutant; assay: flow cytometry, HEK293F cells expressing CD20 KDD mutant
Protocol: as §1, §2

human CD20 [5] = target: T1, human CD20; assay: flow cytometry on Daudi cells (CD20-positive, CD3-negative); PE-conjugated goat anti-human IgG F(ab')2; median FI (PE); remark: listed apart in the source
Protocol: as §3, §4, §5

| Binder | EC50 (read off the curve) (human CD20 [1]) | EC50 (read off the curve) (human CD20 [2]) | % of wt CD20 binding (CD20-AxP) | % of wt CD20 binding (CD20 KDD mutant [3]) | binding result (CD20 KDD mutant [4]) | EC50 (read off the curve) (human CD20 [5]) |
| --- | --- | --- | --- | --- | --- | --- |
| bsIgG1-huCD3-H1L1-FEALxCD20-2C6-FEAR (bispecific antibody, also called CD3x2C6; huCD3x2C6) heavy 1: not shown light: not shown heavy 2: AVQLVESGGGLVQPGRSLRLSCAASGFTFGDYTMHWVRQAPGKGLEWVSGISWNSGSIGYADSVKGRFTISRDNAKNSLYLQMNSLRAEDTALYYCTKDNQYGSGSTYGLGVWGQGTLVTVSSASTKGPSVFPLAPSSKSTSGGTAALGCLVKDYFPEPVTVSWNSGALTSGVHTFPAVLQSSGLYSLSSVVTVPSSSLGTQTYICNVNHKPSNTKVDKRVEPKSCDKTHTCPPCPAPEFEGGPSVFLFPPKPKDTLMISRTPEVTCVVVAVSHEDPEVKFNWYVDGVEVHNAKTKPREEQYNSTYRVVSVLTVLHQDWLNGKEYKCKVSNKALPAPIEKTISKAKGQPREPQVYTLPPSREEMTKNQVSLTCLVKGFYPSDIAVEWESNGQPENNYKTTPPVLDSDGSFFLYSRLTVDKSRWQQGNVFSCSVMHEALHNHYTQKSLSLSPGK VL: EIVLTQSPATLSLSPGERATLSCRASQSVSSYLAWYQQKPGQAPRLLIYDASNRATGIPARFSGSGSGTDFTLTISSLEPEDFAVYYCQQRSNWPLTFGGGTKVEIK | ~0.1 µg/mL | ~0.9 µg/mL | 92% | 3% | no binding (tested: 0.0015-10 µg/mL) | – |
| IgG1-7D8-FEAR (antibody, V domains shown) VH: EVQLVESGGGLVQPDRSLRLSCAASGFTFHDYAMHWVRQAPGKGLEWVSTISWNSGTIGYADSVKGRFTISRDNAKNSLYLQMNSLRAEDTALYYCAKDIQYGNYYYGMDVWGQGTTVTVSS VL: EIVLTQSPATLSLSPGERATLSCRASQSVSSYLAWYQQKPGQAPRLLIYDASNRATGIPARFSGSGSGTDFTLTISSLEPEDFAVYYCQQRSNWPITFGQGTRLEIK | – | ~0.3 µg/mL | – | – | – | ~0.3 µg/mL |
